From paper PMC6162318

Target: ELIC-α1GABAAR chimera (Erwinia chrysanthemi | human) (UniProt P0C7B7)
Test: crystal structure

ELIC-α1GABAAR chimera (from UniProt P0C7B7 1-199) (receptor)
stoichiometry N: 5
